B1: Golgi SNAP receptor complex member 2 (Homo sapiens), O14653 (parent)
chain: MDPLFQQTHKQVHEIQSCMGRLETADKQSVHIVENEIQASIDQIFSRLERLEILSSKEPPNKRQNARLRVDQLKYDVQHLQTALRNFQHRRHAREQQERQREELLSRTFTTNDSDTTIPMDESLQFNSSLQKVHNGMDDLILDGHNILDGLRTQRLTLKGTQKKILDIANMLGLSNTVMRLIEKRAFQDKYFMIGGMLLTCVVMFLVVQYLT
partner: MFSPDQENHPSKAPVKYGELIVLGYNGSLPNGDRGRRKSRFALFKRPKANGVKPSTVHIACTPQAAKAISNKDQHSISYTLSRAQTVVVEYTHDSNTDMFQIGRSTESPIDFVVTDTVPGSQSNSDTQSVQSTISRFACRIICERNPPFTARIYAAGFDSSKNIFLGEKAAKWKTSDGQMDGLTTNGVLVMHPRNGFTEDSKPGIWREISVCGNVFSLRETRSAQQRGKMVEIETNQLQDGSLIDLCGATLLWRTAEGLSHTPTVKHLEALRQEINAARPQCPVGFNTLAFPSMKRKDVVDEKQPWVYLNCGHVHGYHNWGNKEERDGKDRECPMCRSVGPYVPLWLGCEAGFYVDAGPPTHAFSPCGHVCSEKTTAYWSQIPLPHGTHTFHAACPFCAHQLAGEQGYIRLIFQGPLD
B2: Golgi SNAP receptor complex member 2 (Homo sapiens), O14653 (parent)
chain: B1 chain
partner: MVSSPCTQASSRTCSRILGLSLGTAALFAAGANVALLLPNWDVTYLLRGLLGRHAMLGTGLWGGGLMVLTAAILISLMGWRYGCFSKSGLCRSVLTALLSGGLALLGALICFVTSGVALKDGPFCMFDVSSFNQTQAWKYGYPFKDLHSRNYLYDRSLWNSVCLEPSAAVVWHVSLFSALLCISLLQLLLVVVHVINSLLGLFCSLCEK
B3: Ceroid-lipofuscinosis neuronal protein 6 (Homo sapiens), Q9NWW5 (parent)
chain: MEATRRRQHLGATGGPGAQLGASFLQARHGSVSADEAARTAPFHLDLWFYFTLQNWVLDFGRPIAMLVFPLEWFPLNKPSVGDYFHMAYNVITPFLLLKLIERSPRTLPRSITYVSIIIFIMGASIHLVGDSVNHRLLFSGYQHHLSVRENPIIKNLKPETLIDSFELLYYYDEYLGHCMWYIPFFLILFMYFSGCFTASKAESLIPGPALLLVAPSGLYYWYLVTEGQIFILFIFTFFAMLALVLHQKRKRLFLDSNGLFLFSSFALTLLLVALWVAWLWNDPVLRKKYPGVIYVPEPWAFYTLHVSSRH

Variants of: B1
Conditions: with peli1_human PELI1, Q96FA3
G144W was tested, and the “effect of a mutation on the interaction” value was “disrupting interaction strength”.

Variants of: B2
Conditions: with TM4SF19, Q96DZ7
In the case of G144W, the “effect of a mutation on the interaction” value is reported as “with no effect”.

Variants of: B3
Conditions: with stx1a_human STX1A
In the case of G123D, the “effect of a mutation on the interaction” value is reported as “with no effect”. In the case of R103Q, the “effect of a mutation on the interaction” value is reported as “with no effect”. In the case of L47F, the “effect of a mutation on the interaction” value is reported as “with no effect”. In the case of R6T, the “effect of a mutation on the interaction” value is reported as “with no effect”.

Variants of: B3
Conditions: with ar13b_human ARL13B
For G123D, the “effect of a mutation on the interaction” value was “with no effect”. L47F was tested, and the “effect of a mutation on the interaction” value was “with no effect”. In the case of R6T, the “effect of a mutation on the interaction” value is reported as “with no effect”.

Variants of: B3
Conditions: with cxa8_human GJA8, P48165
cxa8_human GJA8, P48165, sequence (P48165 whole entry): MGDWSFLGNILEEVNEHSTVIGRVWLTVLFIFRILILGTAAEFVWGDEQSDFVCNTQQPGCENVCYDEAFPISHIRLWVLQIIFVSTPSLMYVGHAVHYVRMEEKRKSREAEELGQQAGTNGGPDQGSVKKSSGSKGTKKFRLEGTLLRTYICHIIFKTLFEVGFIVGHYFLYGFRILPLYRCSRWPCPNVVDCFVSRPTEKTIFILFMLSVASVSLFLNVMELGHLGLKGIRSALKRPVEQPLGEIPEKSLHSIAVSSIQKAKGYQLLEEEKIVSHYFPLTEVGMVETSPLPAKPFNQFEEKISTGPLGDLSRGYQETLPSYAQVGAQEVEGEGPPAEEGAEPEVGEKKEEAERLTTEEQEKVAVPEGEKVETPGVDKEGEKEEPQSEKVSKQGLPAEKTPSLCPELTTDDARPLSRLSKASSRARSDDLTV
With G123D the “effect of a mutation on the interaction” value was “with no effect”. R6T was tested, and the “effect of a mutation on the interaction” value was “with no effect”.

Variants of: B3
Conditions: with ki2l3_human KIR2DL3, P43628
ki2l3_human KIR2DL3, P43628, sequence (P43628 whole entry): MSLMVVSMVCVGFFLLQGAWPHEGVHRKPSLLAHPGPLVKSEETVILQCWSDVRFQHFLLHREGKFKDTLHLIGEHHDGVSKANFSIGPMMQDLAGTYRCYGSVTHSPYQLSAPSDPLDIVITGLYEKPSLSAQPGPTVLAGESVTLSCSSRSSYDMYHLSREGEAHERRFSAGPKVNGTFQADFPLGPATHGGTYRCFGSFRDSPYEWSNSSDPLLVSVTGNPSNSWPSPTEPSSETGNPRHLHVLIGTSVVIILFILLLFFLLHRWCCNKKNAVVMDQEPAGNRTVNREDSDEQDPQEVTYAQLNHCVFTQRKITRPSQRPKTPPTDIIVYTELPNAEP
With G123D the “effect of a mutation on the interaction” value was “with no effect”. In the case of L47F, the “effect of a mutation on the interaction” value is reported as “with no effect”. For R6T, the “effect of a mutation on the interaction” value was “with no effect”.

Variants of: B3
Conditions: with lrc25_human LRRC25, Q8N386
lrc25_human LRRC25, Q8N386, sequence (Q8N386 whole entry): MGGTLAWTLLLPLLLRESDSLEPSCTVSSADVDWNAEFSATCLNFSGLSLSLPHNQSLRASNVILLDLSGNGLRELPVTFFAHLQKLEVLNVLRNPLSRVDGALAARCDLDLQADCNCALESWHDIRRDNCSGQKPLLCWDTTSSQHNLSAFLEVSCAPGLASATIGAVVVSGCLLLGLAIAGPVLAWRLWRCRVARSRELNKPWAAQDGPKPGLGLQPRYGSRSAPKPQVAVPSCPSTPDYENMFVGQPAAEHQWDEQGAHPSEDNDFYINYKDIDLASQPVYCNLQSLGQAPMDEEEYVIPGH
In the case of G123D, the “effect of a mutation on the interaction” value is reported as “with no effect”. For L47F, the “effect of a mutation on the interaction” value was “with no effect”. For R6T, the “effect of a mutation on the interaction” value was “with no effect”.

Variants of: B3
Conditions: with tm139_human TMEM139, Q8IV31
tm139_human TMEM139, Q8IV31, sequence (Q8IV31 whole entry): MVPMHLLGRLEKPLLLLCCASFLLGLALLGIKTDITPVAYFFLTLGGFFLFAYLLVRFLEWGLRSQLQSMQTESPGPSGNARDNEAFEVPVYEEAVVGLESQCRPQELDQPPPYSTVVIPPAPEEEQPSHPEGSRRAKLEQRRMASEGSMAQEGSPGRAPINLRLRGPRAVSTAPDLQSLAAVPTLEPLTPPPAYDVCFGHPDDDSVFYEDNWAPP
For G123D, the “effect of a mutation on the interaction” value was “with no effect”. For L47F, the “effect of a mutation on the interaction” value was “with no effect”. R6T was tested, and the “effect of a mutation on the interaction” value was “with no effect”.

Variants of: B3
Conditions: with cd79a_human CD79A
For L47F, the “effect of a mutation on the interaction” value was “with no effect”. With R6T the “effect of a mutation on the interaction” value was “with no effect”.
